According to the supplement of paper PMC10126150:
± gives the standard deviation of the averaged measurements.

tested on: ATP; assay: switch fluorescence ratio, 500 uM ATP over buffer (Cy3 cluster intensity, sum of 5 cycles each) (fold (ratio)); higher = stronger signal-on switching upon ATP binding; sequences stand for … in TCGTCGGCAGCGTCAGATGTGTATAAGAGACAGTTTTTTTTTTTTTTTTTTTTTTTTT…TC; conditions: aptamer strand: ATP DNA aptamer (quencher-CACCTGGGGGAGTATTGCGGAGGAAGG + anchor), 100 nM annealed; ATP concentration: 500 uM
Summary of the method: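 Imaging in selection buffer was followed by imaging after 15 min with 500 uM ATP at 22 °C, for Cy3-labelled switching-strand clusters annealed to 100 nM quencher-labelled ATP aptamer on a modified Illumina MiSeq flow-cell. Five of these buffer/ATP cycles ran, separated by NaOH stripping and re-annealing. The fluorescence ratio per cluster is summed target-cycle over summed buffer-cycle Cy3 intensity, averaged per switch-domain sequence; clusters outside 100-1000 RFU were removed.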
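Note: ATP exposure 15 min at 22 °C before imaging.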

ACGAAGGGGG and AAAGGGTTGG are within error of each other in switch fluorescence ratio: 1.14 ± 0.24 for the first, 1.02 ± 0.02 for the second.

Compared with AAATTCTGCG, CGTTCTCCCC is higher in switch fluorescence ratio: 0.941 ± 0.0098 for the first, 1.03 ± 0.068 for the second.

Compared with TGACTATT, ATCTGTTGTC is higher in switch fluorescence ratio: 0.9948 ± 0.004 for the first, 1.06 ± 0.021 for the second.

CATCGGGGTT and AAAGACCCTG are within error of each other in switch fluorescence ratio: 1.01 ± 0.002 for the first, 0.988 ± 0.049 for the second.

ATGTTAGAAA and AAACTATGTG are the same in switch fluorescence ratio: 1.02 ± 0.032 for the first, 1.02 ± 0.037 for the second.

TAGGTGCGGT and TGTTTGAAGG are within error of each other in switch fluorescence ratio: 0.989 ± 0.015 for the first, 0.995 ± 0.017 for the second.

TAGATCATGT and TTTGGACGGT are the same in switch fluorescence ratio: 1.016 ± 0.0026 for the first, 1.015 ± 0.0099 for the second.

Compared with GGCGCAAAGC, GATGTCGGTC is lower in switch fluorescence ratio: 1.487 ± 0.013 for the first, 0.9825 ± 0.0039 for the second.

Going from TGGGCAAAGT to GGATAGTGGT, the switch fluorescence ratio rises from 0.9863 ± 0.0074 to 1.01 ± 0.0079.

Compared with CGTATAGGTC, CCGGTGCCAA is higher in switch fluorescence ratio: 0.999 ± 0.033 for the first, 3.85 ± 0.21 for the second.

TGGTGTTGTC and TCATCTTGTC are within error of each other in switch fluorescence ratio: 1.03 ± 0.033 for the first, 1.01 ± 0.04 for the second.

Compared with GGGTTTGAA, TCCGGGTATT is higher in switch fluorescence ratio: 0.988 ± 0.021 for the first, 1.078 ± 0.0025 for the second.

TGCCGGGGGC and CTGGATGACA are within error of each other in switch fluorescence ratio: 1.04 ± 0.025 for the first, 0.986 ± 0.092 for the second.

AAGGGTGTTT and TGGGACTGGG are the same in switch fluorescence ratio: 1.01 ± 0.034 for the first, 1.01 ± 0.06 for the second.

Compared with ACGGGGGAAT, GTTGCAGGGG is higher in switch fluorescence ratio: 0.991 ± 0.02 for the first, 1.08 ± 0.013 for the second.

TTGGTAAAGA and GTGGAACATT are within error of each other in switch fluorescence ratio: 1 ± 0.013 for the first, 1.02 ± 0.049 for the second.

First: GAGGAGGATG
Second: CAGGGGCGGA
The switch fluorescence ratio of the first is lower: 0.987 ± 0.013 for the first, 1.04 ± 0.03 for the second.

GCGTACGGCG and TTAATTTATC are within error of each other in switch fluorescence ratio: 0.993 ± 0.054 for the first, 0.9982 ± 0.0026 for the second.

AATGGGGGGA and TGTGTTAGG are within error of each other in switch fluorescence ratio: 0.998 ± 0.057 for the first, 1.01 ± 0.03 for the second.

GCGTAAAAGG and TAGGGTGAGT are within error of each other in switch fluorescence ratio: 0.974 ± 0.034 for the first, 1.02 ± 0.035 for the second.

AACTCGTTCT and TATAGGTATG are the same in switch fluorescence ratio: 1.01 ± 0.011 for the first, 1.01 ± 0.012 for the second.

ACCAAAGGCT and GGTTTTGGCT are within error of each other in switch fluorescence ratio: 1.03 ± 0.04 for the first, 0.991 ± 0.01 for the second.

ATTTTGTTTC and ATCAGTATTA are within error of each other in switch fluorescence ratio: 0.987 ± 0.032 for the first, 1.02 ± 0.016 for the second.

Going from GGTTTGCAAG to TGGGGCCTAA, the switch fluorescence ratio rises from 0.986 ± 0.018 to 1.02 ± 0.013.

TTCACATAGC and TATGTGGCAC are within error of each other in switch fluorescence ratio: 1.05 ± 0.1 for the first, 1.08 ± 0.061 for the second.

TGGGGTGCTC and AAGGGGGGTT are within error of each other in switch fluorescence ratio: 0.998 ± 0.056 for the first, 1.01 ± 0.036 for the second.

Going from GCGGTGACTG to TGCGATGGTC, the switch fluorescence ratio rises from 0.965 ± 0.018 to 1.18 ± 0.065.

AGGATTGAAC and CGCGGTGGGA are within error of each other in switch fluorescence ratio: 0.991 ± 0.018 for the first, 1.02 ± 0.026 for the second.

TAATTTCTAA and ATCGTTGTGG are within error of each other in switch fluorescence ratio: 0.9946 ± 0.0029 for the first, 0.9893 ± 0.0048 for the second.

First: GCGGCAGGGC
Second: GTTAAAATTT
The switch fluorescence ratio of the first is higher: 1.05 ± 0.017 for the first, 1.001 ± 0.0014 for the second.

TCCAAAGAGG and CTGGGACAAA are within error of each other in switch fluorescence ratio: 0.997 ± 0.018 for the first, 1.001 ± 0.0016 for the second.

First: CTAAGGAGGG
Second: AGGAAGAGAG
The switch fluorescence ratio of the first is lower: 0.989 ± 0.021 for the first, 1.016 ± 0.0083 for the second.

First: TAGGTGTAGG
Second: AAATCACGGA
The switch fluorescence ratio of the first is lower: 1.01 ± 0.028 for the first, 1.44 ± 0.23 for the second.

TAAAGGACTT and CGGTGGGATG are within error of each other in switch fluorescence ratio: 1.05 ± 0.087 for the first, 0.9784 ± 0.0072 for the second.

GCCATCCTGC and GTTTACGGGC are within error of each other in switch fluorescence ratio: 1.05 ± 0.042 for the first, 1.03 ± 0.027 for the second.

GTTATATAAG and CGTATCATGC are within error of each other in switch fluorescence ratio: 0.984 ± 0.011 for the first, 0.985 ± 0.011 for the second.

CAAGGATAGG and ACAGGGAGTT are within error of each other in switch fluorescence ratio: 0.9984 ± 0.0084 for the first, 0.9911 ± 0.0078 for the second.

GCGAAGGGGT and GTACTCATTT are within error of each other in switch fluorescence ratio: 1.02 ± 0.031 for the first, 1 ± 0.038 for the second.

Going from GAGAAGCAGT to ACGTATGATA, the switch fluorescence ratio rises from 1 ± 0.024 to 1.16 ± 0.056.

CTATTAGATG and GATTTTGT are within error of each other in switch fluorescence ratio: 0.994 ± 0.03 for the first, 0.969 ± 0.037 for the second.

TTCGATTGGG and TATTGCGGGG are within error of each other in switch fluorescence ratio: 0.95725 ± 0.00037 for the first, 1.2 ± 0.42 for the second.

ATAAGAAATA and TGAATCAGG are within error of each other in switch fluorescence ratio: 0.996 ± 0.027 for the first, 1.01 ± 0.073 for the second.

CGTTGGGAGG and CGATGAGAGT are within error of each other in switch fluorescence ratio: 0.979 ± 0.016 for the first, 1.03 ± 0.064 for the second.

TAAAAAGGAC and ATAGGTAGGG are within error of each other in switch fluorescence ratio: 0.9809 ± 0.008 for the first, 0.984 ± 0.0086 for the second.

AGAAAGGTAT and AGTAAGTGGG are within error of each other in switch fluorescence ratio: 1.11 ± 0.25 for the first, 0.956 ± 0.048 for the second.

AGATGTGCCT and GCGTATTGGC are within error of each other in switch fluorescence ratio: 1.01 ± 0.045 for the first, 1.03 ± 0.013 for the second.

CGCATTTGGT and CCAGGTTTCA are within error of each other in switch fluorescence ratio: 1.07 ± 0.036 for the first, 1.03 ± 0.046 for the second.

Going from CCGATTACGC to AGGGGGGTTT, the switch fluorescence ratio falls from 1.9 ± 0.13 to 1 ± 0.024.

GAACCGGATG and TGGGTTAGCC are within error of each other in switch fluorescence ratio: 0.9997 ± 0.0074 for the first, 1.01 ± 0.038 for the second.

Going from ATTCGTTTGT to TGTTACGGCA, the switch fluorescence ratio rises from 0.9869 ± 0.0038 to 1.08 ± 0.041.

GGTAGCCTGC and AGGTGTAATT are within error of each other in switch fluorescence ratio: 1.02 ± 0.023 for the first, 0.987 ± 0.031 for the second.

GGGAAATCGG and TGGGATGGAG are within error of each other in switch fluorescence ratio: 0.986 ± 0.014 for the first, 0.976 ± 0.037 for the second.

Going from TATAGGTCGA to AATAGGGGTT, the switch fluorescence ratio falls from 1.03 ± 0.011 to 0.984 ± 0.03.

Going from TTTACCACCT to ATTAGTGTCG, the switch fluorescence ratio falls from 1.27 ± 0.096 to 1.01 ± 0.046.

First: GCCTTTGCAT
Second: AGTGCTTTTA
The switch fluorescence ratio of the first is higher: 1.04 ± 0.039 for the first, 0.9927 ± 0.0073 for the second.

TTGGACATGT and CGGCTGACGA are within error of each other in switch fluorescence ratio: 0.989 ± 0.027 for the first, 1.03 ± 0.041 for the second.

TTCTTTATGG and ACAAGGGATG are within error of each other in switch fluorescence ratio: 0.973 ± 0.028 for the first, 0.972 ± 0.041 for the second.

TTAAGGCAA and GGGAAAGCAC are the same in switch fluorescence ratio: 1.125 ± 0.0087 for the first, 1.12 ± 0.021 for the second.

Compared with GTTGTAGGGG, ACCCTTTTAC is higher in switch fluorescence ratio: 0.987 ± 0.024 for the first, 1.13 ± 0.052 for the second.

TCAGCGTGGG and GTTATACATT are within error of each other in switch fluorescence ratio: 1.04 ± 0.054 for the first, 1.02 ± 0.011 for the second.

Compared with GGGACGGGTG, ACGTCGTCGG is lower in switch fluorescence ratio: 1.02 ± 0.025 for the first, 0.964 ± 0.018 for the second.

CGTGTTTGCG and GAAAAGGGCG are within error of each other in switch fluorescence ratio: 0.985 ± 0.031 for the first, 1.01 ± 0.022 for the second.

ACCAGTGATG and CGGCCGAACT are within error of each other in switch fluorescence ratio: 1.01 ± 0.039 for the first, 1.033 ± 0.0064 for the second.

Going from CGGGTATTGC to TTGGTGGGGG, the switch fluorescence ratio falls from 1.03 ± 0.011 to 0.989 ± 0.023.

Going from CGGACTCCCA to TTAGAGGGGA, the switch fluorescence ratio falls from 1.753 ± 0.014 to 0.985 ± 0.031.

TTGTTTGTAA and GACGTGTCAA are within error of each other in switch fluorescence ratio: 1.04 ± 0.018 for the first, 1.03 ± 0.019 for the second.

TAAAAGAGAT and TAAGGCGGTC are within error of each other in switch fluorescence ratio: 1.04 ± 0.026 for the first, 0.991 ± 0.098 for the second.

First: CGCTCCGATG
Second: TTATCACTCG
The switch fluorescence ratio of the first is higher: 1.26 ± 0.025 for the first, 1.01 ± 0.0054 for the second.

Compared with AGTGTAATGC, GCTTCCGGGG is higher in switch fluorescence ratio: 1.15 ± 0.022 for the first, 1.27 ± 0.06 for the second.

Compared with TGAAAATAGG, TGATATGTTT is higher in switch fluorescence ratio: 0.9771 ± 0.0068 for the first, 1.006 ± 0.002 for the second.

TCAAATTAGA and AAAAAGTTTT are within error of each other in switch fluorescence ratio: 0.966 ± 0.026 for the first, 0.985 ± 0.058 for the second.

ATTTTATTAT and GAACGTCCAG are within error of each other in switch fluorescence ratio: 1.01 ± 0.024 for the first, 0.99 ± 0.027 for the second.

GGCGTAAGCT and TACGATAGTC are within error of each other in switch fluorescence ratio: 1.012 ± 0.0095 for the first, 1.06 ± 0.069 for the second.

TTTTCTTGGT and TCGATGTTGG are within error of each other in switch fluorescence ratio: 1.01 ± 0.012 for the first, 0.984 ± 0.03 for the second.

Going from TGGGGGACAG to AGGGCTTTAC, the switch fluorescence ratio rises from 1 ± 0.029 to 1.1314 ± 8.1e-05.

Going from TCGTATATTA to GATAGGGGAA, the switch fluorescence ratio falls from 1.02 ± 0.013 to 0.978 ± 0.022.

TGAGTCTTAA and GAGAGGTTTT are within error of each other in switch fluorescence ratio: 1.01 ± 0.027 for the first, 1 ± 0.029 for the second.

TATGAGGGTT and CAAAAGGGAA are within error of each other in switch fluorescence ratio: 1 ± 0.038 for the first, 1.02 ± 0.024 for the second.

GGGCCCTGGG showed a switch fluorescence ratio of 0.994 ± 0.059.
